Reference: US20180186877A1, “METHOD FOR SUPPRESSING BLOOD COAGULATION REACTION FOR WHICH LOX-1 IS RESPONSIBLE” (NATIONAL CEREBRAL AND CARDIOVASCULAR CENTER, priority 2013, published 2018)

Molecular target: LOX-1 (immobilised on the ELISA plate in Examples 3 to 6; recombinant LOX-1 protein immobilised in the test tube in Example 8) (UniProt P78380)
Test: ELISA, LOX-1 immobilised at 5 ug/mL, recombinant A2 domain 0-10 ug/mL, anti-V5 detection

Chain of Recombinant A2 domain of the H chain of FV (NM000130.4, aa 317-656, V5-6xHis; Igk secretion signal) (P12259 345-684 limits assumed, form in doubt): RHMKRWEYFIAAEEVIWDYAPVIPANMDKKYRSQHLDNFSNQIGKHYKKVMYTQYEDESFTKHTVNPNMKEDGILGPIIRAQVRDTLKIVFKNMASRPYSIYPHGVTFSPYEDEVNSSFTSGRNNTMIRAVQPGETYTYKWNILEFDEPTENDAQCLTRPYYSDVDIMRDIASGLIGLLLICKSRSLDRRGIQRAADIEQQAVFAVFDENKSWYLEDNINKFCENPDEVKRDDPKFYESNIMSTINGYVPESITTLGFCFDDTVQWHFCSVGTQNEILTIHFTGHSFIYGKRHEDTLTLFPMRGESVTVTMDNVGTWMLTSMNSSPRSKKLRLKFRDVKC

EC50 (read off the curve): 1 µg/mL
Substance: Recombinant A2 domain of the H chain of FV (NM000130.4, aa 317-656, V5-6xHis; Igk secretion signal) (from UniProt P12259 345-684)
